± gives the standard error. This sample holds only a part of the variants without activity.
B1: glmS ribozyme (parent)
chain: AUAAAAGCGCCAGAACUACAGAAAUGUAGUUGACGAGGAGGAGGUUUAUCGAAUUUUCGGCGGAUGCCUCCAAA

How the values were obtained:
Settings in all cases: with glucosamine-6-phosphate
glucosamine-6-phosphate [1] = variants of: B1; assay: self-cleavage kobs at 160 uM GlcN6P; higher = faster cleavage; RNA array
In short: (§1)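 Glucosamine-6-phosphate (40 μM to 10 mM) in HEPES/KCl/Mg(OAc)2 buffer was flowed over sequenced MiSeq chips, and tiles were imaged over ~14 h. Barcoded ribozyme variants there had been transcribed in situ by E. coli RNA polymerase and were tracked through a hybridised Cy3 probe at 37 °C. One- or two-exponential decay fits to per-tile medians, normalised to baseline and to non-cleaving reference variants, gave kobs. kcat and KM came from weighted Michaelis–Menten fits across concentrations.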

glucosamine-6-phosphate [2] = variants of: B1; assay: self-cleavage kobs at 640 uM GlcN6P; higher = faster cleavage; RNA array
In short: as §1

glucosamine-6-phosphate [3] = variants of: B1; assay: self-cleavage kobs at 2500 uM GlcN6P; higher = faster cleavage; RNA array
In short: as §1

glucosamine-6-phosphate [4] = variants of: B1; assay: self-cleavage kobs at 10000 uM GlcN6P; higher = faster cleavage; RNA array
In short: as §1

Row | Variant | self-cleavage kobs at 160 uM GlcN6P (glucosamine-6-phosphate [1]) | self-cleavage kobs at 640 uM GlcN6P (glucosamine-6-phosphate [2]) | self-cleavage kobs at 2500 uM GlcN6P (glucosamine-6-phosphate [3]) | self-cleavage kobs at 10000 uM GlcN6P (glucosamine-6-phosphate [4])
1 | C8A C11U C50G A53U G63A | 0.00012 ± 2.8e-05 s⁻¹ | 0.000594 ± 0.00015 s⁻¹ | 9.63e-05 ± 3.3e-05 s⁻¹ | –
2 | G9A C10A | < 1e-05 s⁻¹ | < 1e-05 s⁻¹ | < 1e-05 s⁻¹ | < 1e-05 s⁻¹
3 | G9U A12G | < 1e-05 s⁻¹ | < 1e-05 s⁻¹ | < 1e-05 s⁻¹ | < 1e-05 s⁻¹
4 | G7C C70G | < 1e-05 s⁻¹ | < 1e-05 s⁻¹ | < 1e-05 s⁻¹ | –
5 | G9A A52U C58U C70G | < 1e-05 s⁻¹ | < 1e-05 s⁻¹ | – | –
6 | C10G A48C G51U U65C | < 1e-05 s⁻¹ | < 1e-05 s⁻¹ | < 1e-05 s⁻¹ | –
7 | G7U G13U A14U A48G U54A | < 1e-05 s⁻¹ | < 1e-05 s⁻¹ | < 1e-05 s⁻¹ | –
8 | G7U G13C G35U G37A | < 1e-05 s⁻¹ | – | < 1e-05 s⁻¹ | –
9 | G9A A48U | < 1e-05 s⁻¹ | < 1e-05 s⁻¹ | < 1e-05 s⁻¹ | –
10 | G9A U46G | < 1e-05 s⁻¹ | < 1e-05 s⁻¹ | – | < 1e-05 s⁻¹
11 | C10U A36G U46C | < 1e-05 s⁻¹ | – | < 1e-05 s⁻¹ | < 1e-05 s⁻¹
12 | C11U G44U G60A C61G | < 1e-05 s⁻¹ | < 1e-05 s⁻¹ | < 1e-05 s⁻¹ | < 1e-05 s⁻¹
13 | C11U A42U C68A | < 1e-05 s⁻¹ | – | < 1e-05 s⁻¹ | –
14 | G9U G62A | < 1e-05 s⁻¹ | < 1e-05 s⁻¹ | < 1e-05 s⁻¹ | < 1e-05 s⁻¹
15 | C8U G40U A48U U65A | < 1e-05 s⁻¹ | < 1e-05 s⁻¹ | < 1e-05 s⁻¹ | –
16 | C8U C10A G62A | < 1e-05 s⁻¹ | < 1e-05 s⁻¹ | – | –
17 | G9U A12G G29A U56A | < 1e-05 s⁻¹ | < 1e-05 s⁻¹ | < 1e-05 s⁻¹ | –
18 | G9C G38A C70U | < 1e-05 s⁻¹ | < 1e-05 s⁻¹ | < 1e-05 s⁻¹ | –
19 | C10G G66C | < 1e-05 s⁻¹ | < 1e-05 s⁻¹ | – | < 1e-05 s⁻¹
20 | G7U A36C A48C A53U | < 1e-05 s⁻¹ | – | < 1e-05 s⁻¹ | –
21 | C11G A64U U65A | < 1e-05 s⁻¹ | < 1e-05 s⁻¹ | < 1e-05 s⁻¹ | –
22 | C11G G37C G40A U45A C70U | < 1e-05 s⁻¹ | – | – | –
23 | C10G A39U | < 1e-05 s⁻¹ | < 1e-05 s⁻¹ | – | –
24 | G7U U45A | < 1e-05 s⁻¹ | – | < 1e-05 s⁻¹ | –
25 | G7U A12G G32U | < 1e-05 s⁻¹ | – | – | –

Row | Variant | self-cleavage kobs at 160 uM GlcN6P (glucosamine-6-phosphate [1]) | self-cleavage kobs at 640 uM GlcN6P (glucosamine-6-phosphate [2]) | self-cleavage kobs at 2500 uM GlcN6P (glucosamine-6-phosphate [3]) | self-cleavage kobs at 10000 uM GlcN6P (glucosamine-6-phosphate [4])
26 | G7U A15G G32A | < 1e-05 s⁻¹ | < 1e-05 s⁻¹ | – | –
27 | G9U C61U | < 1e-05 s⁻¹ | < 1e-05 s⁻¹ | – | < 1e-05 s⁻¹
28 | G9A G37A A42U | < 1e-05 s⁻¹ | < 1e-05 s⁻¹ | – | –
29 | G7U A12C U54A C58A C70G | < 1e-05 s⁻¹ | – | < 1e-05 s⁻¹ | –
30 | C8U C16U U54A C61A C71U | < 1e-05 s⁻¹ | < 1e-05 s⁻¹ | – | –
31 | C8G A12C A36C G59A | < 1e-05 s⁻¹ | – | < 1e-05 s⁻¹ | –
32 | C11U A33C A53U | < 1e-05 s⁻¹ | < 1e-05 s⁻¹ | – | –
33 | G7U C10G G13U A15U A39G | < 1e-05 s⁻¹ | < 1e-05 s⁻¹ | < 1e-05 s⁻¹ | –
34 | G9U A42C | < 1e-05 s⁻¹ | – | < 1e-05 s⁻¹ | –
35 | C8G G51C C68G | < 1e-05 s⁻¹ | < 1e-05 s⁻¹ | – | –
36 | C11G A39C A64U | < 1e-05 s⁻¹ | < 1e-05 s⁻¹ | – | –
37 | C11A C16U G44U A53G C71G | < 1e-05 s⁻¹ | < 1e-05 s⁻¹ | – | –
38 | C11A G38U G40U | < 1e-05 s⁻¹ | – | – | –
39 | G9A A52G | < 1e-05 s⁻¹ | < 1e-05 s⁻¹ | < 1e-05 s⁻¹ | –
40 | C11U A42U | < 1e-05 s⁻¹ | < 1e-05 s⁻¹ | < 1e-05 s⁻¹ | –
41 | G7U G66A | < 1e-05 s⁻¹ | – | – | < 1e-05 s⁻¹
42 | C11U G13U U49G | < 1e-05 s⁻¹ | < 1e-05 s⁻¹ | < 1e-05 s⁻¹ | –
43 | C8U A39C G44A U56G U65A | < 1e-05 s⁻¹ | – | – | –
44 | C10U C16U G38C | < 1e-05 s⁻¹ | < 1e-05 s⁻¹ | < 1e-05 s⁻¹ | –
45 | G7C C61A | < 1e-05 s⁻¹ | < 1e-05 s⁻¹ | – | –
46 | G7C C61U | < 1e-05 s⁻¹ | < 1e-05 s⁻¹ | < 1e-05 s⁻¹ | –
47 | G7C C68G | < 1e-05 s⁻¹ | < 1e-05 s⁻¹ | < 1e-05 s⁻¹ | < 1e-05 s⁻¹
48 | C11U A14C A39G U69A | < 1e-05 s⁻¹ | – | – | –
49 | C10G A53C | < 1e-05 s⁻¹ | < 1e-05 s⁻¹ | < 1e-05 s⁻¹ | < 1e-05 s⁻¹

Source: the supplement of paper PMC7125110
